From PMC5966398, “Conserved RNA binding activity of a Yin-Yang 1 homologue in the ova of the purple sea urchin Strongylocentrotus purpuratus”

Target: SpYY1 (recombinant) (Strongylocentrotus purpuratus, UniProt A0A7M7RHL1 1-400)
Assay: EMSA; 250 nM protein, 10 nM probe; 50 mM NaCl, 50 mM Tris-HCl pH 7.5, 2 mM MgCl2, 1 mM DTT, 5% glycerol, room temperature 20 min; 10 nM probe; recombinant protein 0.5 uM (Methods) or 250 nM (Fig. 4 legend); lysate reactions with poly-dIdC (DNA) or yeast tRNA (RNA)
Settings: tags: His tag and EK site from pRSetB (text says C-terminal)

SpYY1 (recombinant), sequence (A0A7M7RHL1 entry or part of it): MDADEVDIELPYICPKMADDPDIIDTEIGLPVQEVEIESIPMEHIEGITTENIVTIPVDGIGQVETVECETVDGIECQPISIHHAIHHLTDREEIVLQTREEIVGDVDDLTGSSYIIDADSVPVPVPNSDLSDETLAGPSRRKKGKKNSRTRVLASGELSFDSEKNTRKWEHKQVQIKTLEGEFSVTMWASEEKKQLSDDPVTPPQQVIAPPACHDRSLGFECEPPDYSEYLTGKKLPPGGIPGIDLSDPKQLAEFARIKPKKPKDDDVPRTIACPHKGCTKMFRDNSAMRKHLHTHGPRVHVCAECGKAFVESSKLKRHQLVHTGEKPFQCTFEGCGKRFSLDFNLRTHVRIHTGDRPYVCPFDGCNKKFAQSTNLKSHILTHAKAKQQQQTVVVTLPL

UUUUUUUUUUUUUUUUUUUU (ssRNA) [U(20) RNA]
binding result (label: 5'-32P when probe, single strand): binds

B1: YY1 consensus DNA element (YY1C) (dsDNA)
DNA 1: CTAGGCGCTCCCCGGCCATCTTGGCGGCTGGT
DNA 2: ACCAGCCGCCAAGATGGCCGGGGAGCGCCTAG
binding result (label: 32P end-fill when probe): binds
